The source of these data is US20240109967A1 (University of Pennsylvania, published 2024).

The target of assay [1] is T1, human complement C1q (in normal human complement serum) (human, UniProt P02745 23-245; P02746 28-253; P02747 29-245).
T1 construct: also called human serum complement
Description: complement fixation ELISA: antibody on captured cCTLA-4, human serum complement, anti-human C1q HRP.

In assay [2] the target is T2, recombinant human CD80-Fc chimera (carrier free, BioLegend) (human, UniProt P33681 35-242).
T2 construct: Commercial protein; also called huCD80-Fc; huCD80; not shown: Fc of the commercial chimera, not described
T2 sequence (looked up): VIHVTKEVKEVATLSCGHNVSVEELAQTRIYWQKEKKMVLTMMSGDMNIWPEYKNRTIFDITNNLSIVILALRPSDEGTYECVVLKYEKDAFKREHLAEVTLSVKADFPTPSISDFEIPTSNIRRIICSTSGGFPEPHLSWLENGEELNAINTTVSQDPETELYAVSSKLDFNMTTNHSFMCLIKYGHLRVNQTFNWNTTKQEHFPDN
The assay can be described thus: ELISA: biotinylated cCTLA-4 ECD on plate-bound human CD80-Fc, streptavidin-AP, no antibody.

In assay [3] the target is T3, recombinant human CD86-Fc chimera (carrier free, BioLegend) (human, UniProt P42081 24-247).
T3 construct: Commercial protein; also called huCD86-Fc; huCD86; not shown: Fc of the commercial chimera, not described
T3 sequence (looked up): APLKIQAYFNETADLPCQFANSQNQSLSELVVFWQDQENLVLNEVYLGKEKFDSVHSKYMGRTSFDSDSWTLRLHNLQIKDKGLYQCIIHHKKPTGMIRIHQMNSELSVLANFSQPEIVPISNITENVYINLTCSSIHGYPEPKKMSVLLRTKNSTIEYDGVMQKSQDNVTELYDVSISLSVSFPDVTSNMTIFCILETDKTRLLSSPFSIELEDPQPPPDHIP
Description: ELISA: biotinylated cCTLA-4 ECD on plate-bound human CD86-Fc, streptavidin-AP, no antibody.

T1 sequence (P02745 23-245 limits assumed, chain 1 of 3): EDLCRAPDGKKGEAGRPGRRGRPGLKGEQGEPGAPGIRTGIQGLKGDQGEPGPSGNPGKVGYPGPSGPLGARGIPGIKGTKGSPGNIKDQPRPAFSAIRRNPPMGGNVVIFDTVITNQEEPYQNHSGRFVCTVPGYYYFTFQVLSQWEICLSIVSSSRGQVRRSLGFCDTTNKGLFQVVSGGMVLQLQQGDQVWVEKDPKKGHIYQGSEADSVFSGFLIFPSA
T1 sequence (P02746 28-253 limits assumed, chain 2 of 3): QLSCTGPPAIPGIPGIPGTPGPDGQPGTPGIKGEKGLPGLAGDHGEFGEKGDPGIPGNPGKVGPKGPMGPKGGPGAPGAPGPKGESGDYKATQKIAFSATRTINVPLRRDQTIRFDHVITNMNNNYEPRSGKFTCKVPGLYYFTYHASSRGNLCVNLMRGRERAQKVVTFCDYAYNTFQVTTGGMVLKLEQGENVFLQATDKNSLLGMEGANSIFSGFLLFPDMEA
T1 sequence (P02747 29-245 limits assumed, chain 3 of 3): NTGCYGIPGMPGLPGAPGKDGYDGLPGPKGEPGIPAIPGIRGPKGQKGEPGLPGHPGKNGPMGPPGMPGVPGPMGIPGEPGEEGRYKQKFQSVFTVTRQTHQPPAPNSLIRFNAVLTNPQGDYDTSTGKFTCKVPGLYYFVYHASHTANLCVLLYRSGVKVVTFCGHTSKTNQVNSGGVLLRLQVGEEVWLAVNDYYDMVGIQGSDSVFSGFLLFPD

B1: A1mut2 full-length canine IgG4 (IgGD) mAb, HA-tagged (antibody)
heavy: EVQLVETGGDLVKPGGSLRLSCVASGFSFSSYAMNWVRQAPEKGLQLVGGINSGGSSTYYTDAVKGRFTISRDNAKNTVYLQMNSLRAEDTAVYYCAISNWAYWGQGTLVTVSSASTTAPSVFPLAPSCGSTSGSTVALACLVSGYFPEPVTVSWNSGSLTSGVHTFPSVLQSSGLYSLSSMVTVPSSRWPSETFTCNVVHPASNTKVDKPVPKESTCKCISPCPVPESLGGPSVFIFPPKPKDILRITRTPEITCVVLDLGREDPEVQISWFVDGKEVHTAKTQPREQQFNSTYRVVSVLPIEHQDWLTGKEFKCRVNHIGLPSPIERTISKARGQAHQPSVYVLPPSPKELSSSDTVTLTCLIKDFFPPEIDVEWQSNGQPEPESKYHTTAPQLDEDGSYFLYSKLSVDKSRWQQGDPFTCAVMHEALQNHYTDLSLSHSPGKGGGSGGGSYPYDVPDYA
light: QAVLNQPASVSGSLGQRVTISCTGSSSDIGKSYVAWYQQLPGTGPRTLINVDGNRASGVPDRFSVSRSGNTATLTISGLQAEDEADYHCSSWDWSLHTYVFGSGTQLTILGQPKASPSVTLFPPSSEELGANKATLVCLISDFYPSGVTVAWKADGSPITQGVETTKPSKQSNNKYAASSYLSLTPDKWKSHSSFSCLVTHEGSTVEKKVAPAECS
notes: also called A1mut2 IgGD
For B1, the binding result in assay [1] is recorded as “no binding (tested: 10 ug/ml antibody)”.

B2: recombinant canine CTLA-4 extracellular domain protein (receptor, not shown: small tags and cut ends)
chain: KGMHVAQPAVVLASSRGVASFVCEYGSSGNAAEVRVTVLRQAGSQMTEVCAATYTVEDELAFLDDSTCTGTSSGNKVNLTIQGLRAMDTGLYICKVELMYPPPYYVGMGNGTQIYVIDPEPCPDSD
modifications: biotin on the Avi tag (BirA ligase) in the ELISA, panning and interaction assays
notes: Cloned into pFUSE containing an HA tag, made in 293T cells; The SPR analyte is called soluble cCTLA-4 ECD, and biotinylation is not mentioned there; also called cCTLA-4; cCTLA-4 ECD
As for B2, the binding result in assay [2] and in assay [3] was “binds” throughout.
